Test results as given in publication PMC11218372.

Key:
[1] = biological target: CA7-PabCA, carbonic anhydrase from Pyrococcus abyssi (Py. abyssi); experiment: SDS-PAGE; SEC fractions of the purified CA (Cobalt His-Pur, Superdex 75), NuPAGE 4-12% Bis-Tris gel
[2] = biological target: CA7-PabCA, carbonic anhydrase from Pyrococcus abyssi (Py. abyssi); experiment: SDS-PAGE; cell lysates of E. coli overexpressing the CA, NuPAGE 4-12% Bis-Tris gel in MES buffer; CA7 expressed without additional Zn, CA8 with 0.5 mM ZnSO4
[3] = biological target: CA8-PhoCA, carbonic anhydrase from Pyrococcus horikoshii (Py. horikoshii); experiment: SDS-PAGE; SEC fractions of the purified CA (Cobalt His-Pur, Superdex 75), NuPAGE 4-12% Bis-Tris gel
[4] = biological target: CA8-PhoCA, carbonic anhydrase from Pyrococcus horikoshii (Py. horikoshii); experiment: SDS-PAGE; cell lysates of E. coli overexpressing the CA, NuPAGE 4-12% Bis-Tris gel in MES buffer; CA7 expressed without additional Zn, CA8 with 0.5 mM ZnSO4

stoichiometry N [1]	stoichiometry N [2]	stoichiometry N [3]	stoichiometry N [4]	Substance
3	3	–	–	CA7-PabCA, carbonic anhydrase from Pyrococcus abyssi (enzyme)
–	–	3	3	CA8-PhoCA, carbonic anhydrase from Pyrococcus horikoshii (enzyme)
